This passage reports stoichiometry N results from PMC5321526.

For the assay, the target named is MVV IN construct spanning the C-terminal domain (CTD), as crystallised (maedi-visna virus (MVV)). Description: crystal structure.

On to “MVV IN construct spanning the C-terminal domain (CTD), as crystallised (domain or fragment)”, for which the stoichiometry N (usually the number of molecules, sites or subunits per partner or assembly) was found to be 2.
